Our source for the EC50 of CaM for in vitro CaMKII kinase activity (phosphorylation of syntide-2; 0.6 nM to 6 μM CaM) values is PMC8985225.

Assay [1] deals with Ca^2+/CaM-dependent kinase II α (CaMKIIα) holoenzyme (rodent) (UniProt P11275).
In assay [2] the target is Ca^2+/CaM-dependent kinase II β (CaMKIIβ) holoenzyme (rodent) (UniProt P08413).
Sequence of UniProt P08413 (P08413 whole entry): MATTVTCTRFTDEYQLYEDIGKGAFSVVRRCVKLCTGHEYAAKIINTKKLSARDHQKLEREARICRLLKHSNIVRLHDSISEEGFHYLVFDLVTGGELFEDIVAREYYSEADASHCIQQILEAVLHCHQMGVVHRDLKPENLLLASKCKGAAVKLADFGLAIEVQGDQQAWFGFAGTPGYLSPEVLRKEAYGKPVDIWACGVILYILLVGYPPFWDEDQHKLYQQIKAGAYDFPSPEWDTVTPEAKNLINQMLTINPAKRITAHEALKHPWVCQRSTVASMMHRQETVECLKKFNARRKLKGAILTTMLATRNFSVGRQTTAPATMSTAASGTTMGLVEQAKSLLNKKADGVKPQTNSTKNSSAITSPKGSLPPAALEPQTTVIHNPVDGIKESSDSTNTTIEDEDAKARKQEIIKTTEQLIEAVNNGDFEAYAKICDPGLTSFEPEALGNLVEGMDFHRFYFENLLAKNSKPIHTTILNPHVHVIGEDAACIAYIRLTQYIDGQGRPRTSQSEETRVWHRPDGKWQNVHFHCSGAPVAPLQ

Sequence of UniProt P11275 (P11275 whole entry): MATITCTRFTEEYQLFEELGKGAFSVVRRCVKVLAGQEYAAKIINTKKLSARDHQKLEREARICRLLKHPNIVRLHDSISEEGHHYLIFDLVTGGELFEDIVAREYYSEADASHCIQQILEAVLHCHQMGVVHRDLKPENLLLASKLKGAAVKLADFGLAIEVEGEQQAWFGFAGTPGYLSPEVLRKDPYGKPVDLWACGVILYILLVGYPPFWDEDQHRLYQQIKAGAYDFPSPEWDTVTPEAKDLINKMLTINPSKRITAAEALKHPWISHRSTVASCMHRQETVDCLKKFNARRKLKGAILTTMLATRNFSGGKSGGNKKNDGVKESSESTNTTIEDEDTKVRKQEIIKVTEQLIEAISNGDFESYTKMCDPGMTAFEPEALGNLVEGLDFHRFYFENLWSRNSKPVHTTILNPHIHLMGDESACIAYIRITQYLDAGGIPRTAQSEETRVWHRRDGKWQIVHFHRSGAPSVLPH

Regarding “Calmodulin (from UniProt P0DP23 1-149) (natural protein)”, the EC50 of CaM for in vitro CaMKII kinase activity (phosphorylation of syntide-2; 0.6 nM to 6 μM CaM) in assay [1] amounted to 30.1 nM; in assay [2], 14.6 nM.
